Experimental data from patent publication US20190302117.

Experiments:
[1] = test system: Peptide 11: DEAIYATVAGGKKK (version of peptide 5 used for the kinetic experiments)
[2] = test system: Peptide 10: EDPIYVTLEGGKKK (version of peptide 2 used for the kinetic experiments)

Row | Substance | kcat [1] | kcat/Km [1] | kcat [2] | kcat/Km [2] | Km [1] | 2/5 kcat/Km ratio (peptide 2 against peptide 5) [2] | Km [2]
1 | SRC as GST fusion protein | > 2 s⁻¹ | 9500 M⁻¹ s⁻¹ | > 40 s⁻¹ | 17500 M⁻¹ s⁻¹ |  |  | 
2 | SYK as GST fusion protein | > 0.1 s⁻¹ | 560 M⁻¹ s⁻¹ | > 2e-07 s⁻¹ | 1080 M⁻¹ s⁻¹ | > 200 µM | 1.8 | > 200 µM
